Reference: patent US6358897B1, “Alkyl trypsin compositions and methods of use in contact lens cleaning and disinfecting systems” (Alcon Laboratories, Inc., priority 1996, dated 2002)

Key:
[1] = test system: lysozyme deposits; experiment: Cleaning efficacy on lysozyme-deposited contact lenses, fluorescence method; conditions: for Lysozyme, Total: hydrolysate plus ACN/TFA extract; for Lysozyme, ACN/TFA Extract: lens extract after overnight cleaning at room temperature; for % Cleaning Efficacy: overnight soak at room temperature, no rubbing; for Lysozyme, Hydrolysate: soaking solution after overnight cleaning at room temperature
Description: The following example illustrates the cleaning efficacy of a multi-purpose composition (Example 6) of the present invention. The cleaning efficacy was determined using the following protocol. 1. Physiological/Thermal Combination Model Each lens was first soaked in a 5 ml lysozyme solution (native or C14-labeled, 1.0 mg/ml in 0.05M phosphate buffer containing 0.9% sodium chloride, pH 7.4) at 37° C. for 24 hours, then removed to a saline solution (2 ml) and heated at 90° C. for 15 minutes. 2. Cleaning and Assessment of Lysozyme Deposits Each deposited lens was placed in a 5 ml of a test solution and agitated in a rotary shaker at room temperature overnight (usually >12 hours). The compositions tested were: 1) the Example 6 composition (Me-trypsin), 2) 1 drop of Example 3B (except Me-trypsin was replaced by trypsin) in 5 mL of the Example 2B composition and 3) 1 drop of Supraclens® Daily Protein Remover (pancreatin) in 5 mL of the Example 2B composition. After rinsing the lens by dipping three times in three consecutive 40 ml saline solution, the lens was subjected to extraction with 5 ml ACN/TFA solution (acetonitrile/trifluoroacetic acid/water: 500/1/500 v/v) for at least 2 hours. No mechanical rubbing was applied to the cleaning regimen. Both the extract and the soaking solution were then assessed for lysozyme by the protein intrinsic fluorescence method using a fluorescence spectrophotometer (excitation wavelength is 280 nm, emission wavelength is 354 nm), or by a scintillation counter for the C14-lysozyme. The quantification of lysozyme was based on a lysozyme standard curve established using the same vehicle and instrumental setting used for the lens extract and lens soaking solution. The results are show in Tables 9-10.

[2] = test system: azocasein; experiment: Thermal stability of Me-trypsin and trypsin in a disinfecting solution (Example 5C), azocasein method; type: physicochemical; conditions: Example 5C composition, 50 μg/ml
Description: Azocasein Method The following solutions are used in this assay: 1) Buffer solution: 0.05 M sodium phosphate buffer containing 0.9% sodium chloride, pH 7.6. 2) Substrate solution: 2 mg/ml azocasein in the buffer solution mentioned above. The assay is initiated by mixing 1 ml of an appropriately diluted (such that the enzyme activity is in the range of standard curve) enzyme composition in phosphate buffer with 2 ml of azocasein substrate solution (2 mg/ml). After incubation at 37° C. for 20 minutes, the mixture is removed from the incubator and 1 ml of trichloroacetic acid to (14% w/v) is added to stop the enzyme reaction. The mixture is vortexed well and allowed to stand at room temperature for 20 minutes. After centrifuging at 2500 rpm (with a Beckman GS-6R Centrifuge) for 15 minutes, the supernatant is filtered with a serum sampler. 2 ml of the clear yellow filtrate is then adjusted to a neutral pH with 2 ml of 0.5 N sodium hydroxide and the absorbance of 440 nm wavelength light is measured with a spectrophotometer. The amount of azocasein hydrolyzed is calculated based on a standard curve of known concentrations of azocasein solution developed under identical conditions. An enzyme activity unit (“AZ U”) is defined as that amount of enzyme which hydrolyzes 1 μg of azocasein substrate/minute at 37° C. The following is an example of the stability of Me-trypsin in a disinfecting composition of the present invention as compared to an analogous composition containing trypsin. The enzymes were solubilized in the Example 5C composition. The two compositions were incubated at 35° C. or 40° C. At the appointed time, aliquots were tested for enzyme activity by the azocasein method. Activity levels were compared with initial levels and expressed as percent remaining activity.

[3] = test system: azocasein; experiment: Stability of Me-trypsin, trypsin and pancreatin in a disinfecting composition (Example 5C), azocasein method; type: physicochemical; conditions: for % Activity Remaining: Example 5C composition, 50 μg/ml (pancreatin 375 μg/ml)
Description: Azocasein Method The following solutions are used in this assay: 1) Buffer solution: 0.05 M sodium phosphate buffer containing 0.9% sodium chloride, pH 7.6. 2) Substrate solution: 2 mg/ml azocasein in the buffer solution mentioned above. The assay is initiated by mixing 1 ml of an appropriately diluted (such that the enzyme activity is in the range of standard curve) enzyme composition in phosphate buffer with 2 ml of azocasein substrate solution (2 mg/ml). After incubation at 37° C. for 20 minutes, the mixture is removed from the incubator and 1 ml of trichloroacetic acid to (14% w/v) is added to stop the enzyme reaction. The mixture is vortexed well and allowed to stand at room temperature for 20 minutes. After centrifuging at 2500 rpm (with a Beckman GS-6R Centrifuge) for 15 minutes, the supernatant is filtered with a serum sampler. 2 ml of the clear yellow filtrate is then adjusted to a neutral pH with 2 ml of 0.5 N sodium hydroxide and the absorbance of 440 nm wavelength light is measured with a spectrophotometer. The amount of azocasein hydrolyzed is calculated based on a standard curve of known concentrations of azocasein solution developed under identical conditions. An enzyme activity unit (“AZ U”) is defined as that amount of enzyme which hydrolyzes 1 μg of azocasein substrate/minute at 37° C. The following is an example of the stability of Me-trypsin in a disinfecting composition of the present invention as compared to analogous compositions containing trypsin or pancreatin. The enzymes were solubilized in the Example 5C composition. The compositions were stored at room temperature or 30° C. for up to 42 days. At various time points, enzyme activity was assayed using the azocasein method.

Substance | Lysozyme, Total [1] [μg/Lens] | Lysozyme, ACN/TFA Extract [1] [μg/Lens] | % Cleaning Efficacy [1] [%] | Lysozyme, Hydrolysate [1] [μg/Lens] | % Activity Remaining ([2]; 35° C., 24 hrs) [%] | % Activity Remaining ([2]; 35° C., 48 hrs) [%] | % Activity Remaining ([2]; 35° C., 72 hrs) [%] | % Activity Remaining ([2]; 35° C., 168 hrs) [%] | % Activity Remaining ([2]; 40° C., 24 hrs) [%] | % Activity Remaining ([2]; 40° C., 114 hrs) [%] | % Activity Remaining ([2]; 40° C., 168 hrs) [%] | % Activity Remaining ([3]; 30° C., 1 day) [%] | % Activity Remaining ([3]; 30° C., 2 days) [%] | % Activity Remaining ([3]; 30° C., 5 days) [%] | % Activity Remaining ([3]; 30° C., 7 days) [%] | % Activity Remaining ([3]; 30° C., 14 days) [%] | % Activity Remaining ([3]; RT, 1 day) [%] | % Activity Remaining ([3]; RT, 2 days) [%] | % Activity Remaining ([3]; RT, 5 days) [%] | % Activity Remaining ([3]; RT, 7 days) [%] | also measured
methyl trypsin [Me-Trypsin] | 274.35 | 72.90 | 73.4 | 201.45 | 97.6 | 96.4 | 91.6 | 87.3 | 88.9 | 75.2 | 67.0 | 99.7 | 97.8 | 96.1 | 93.5 | 91.8 | 100.9 | 100.8 | 97.9 | 99.4 | % Activity Remaining ([3]; 30° C., 21 days): 86.7%; % Activity Remaining ([3]; 30° C., 28 days): 82.7%; % Activity Remaining ([3]; 30° C., 35 days): 80.0%; % Activity Remaining ([3]; 30° C., 42 days): 76.3%; % Activity Remaining ([3]; RT, 14 days): 100.0%; % Activity Remaining ([3]; RT, 21 days): 98.5%; % Activity Remaining ([3]; RT, 28 days): 96.6%; % Activity Remaining ([3]; RT, 35 days): 96.5%; % Activity Remaining ([3]; RT, 42 days): 94.0%; stability in a disinfecting composition over analogous compositions containing trypsin or pancreatin ([3]; summary of Table 2): superior stability
Trypsin [Native Trypsin, reference compound] | 317.40 | 83.92 | 73.6 | 233.45 | 69.9 | 55.9 | 48.5 | 37.6 | 42.4 | 19.4 | 17.4 | 90.8 | 78.7 | 66.7 | 62.4 | 52.4 | 102.5 | 101.5 | 98.5 | 93.6 | % Activity Remaining ([3]; RT, 14 days): 85.7%; % Activity Remaining ([3]; RT, 21 days): 79.6%; % Activity Remaining ([3]; RT, 28 days): 74.4%; % Activity Remaining ([3]; RT, 35 days): 73.8%; % Activity Remaining ([3]; RT, 42 days): 61.3%
